Source: patent US20220236279A1 (published 2022)
No end group written: not given here.

Molecular target: human atypical chemokine receptor 3 (ACKR3) (human, UniProt P25106 1-362)
Test: binding competition with CXCL12-AF647, flow cytometry

Chain of human atypical chemokine receptor 3 (ACKR3) (P25106 whole entry): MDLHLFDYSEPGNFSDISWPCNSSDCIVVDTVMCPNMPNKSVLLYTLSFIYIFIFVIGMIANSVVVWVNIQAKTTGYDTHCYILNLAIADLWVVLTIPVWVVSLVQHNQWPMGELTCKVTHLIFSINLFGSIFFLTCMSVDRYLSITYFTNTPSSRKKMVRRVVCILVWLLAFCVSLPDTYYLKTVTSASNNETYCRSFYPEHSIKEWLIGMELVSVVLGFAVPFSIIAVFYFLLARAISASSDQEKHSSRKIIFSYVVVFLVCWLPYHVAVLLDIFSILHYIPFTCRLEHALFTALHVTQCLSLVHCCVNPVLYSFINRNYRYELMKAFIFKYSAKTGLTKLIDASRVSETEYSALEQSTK

Going from YGGFLRRIRPKLKWDNQ [dynorphin A] to YGGFMRRVGRPEWWMDYQKRYG [BAM22], the IC50 falls from 82.7 nM to 32.7 nM (2.5-fold).

First: FGGFTGARKSARK-NH2 (also: reduced peptide bond ψ(CH2-NH) between Phe1 and Gly2) [Phe1ψ(CH2-NH)-Gly2-Nociceptin-1-13 amide (SEQ ID NO: 13; NH2-substituted at C-terminus)]
Second: YGGFLRRQFKVVT [dynorphin B]
The IC50 of the first is higher: over 10000 nM for the first, 465 nM for the second.

Going from GGFLRRIRPKLK-NH2 [dynorphin 2-13 (SEQ ID NO: 20; NH2-substituted at C-terminus)] to YGGFMRRV-NH2 [adrenorphin, YGGFMRRV (SEQ ID NO: 32; NH2-substituted at C-terminus)], the IC50 falls from 20900 nM to 49 nM (430-fold).

First: GGFLRRIRPKLKWDNQ [dynorphin 2-17 (SEQ ID NO: 19)]
Second: H-FGGFMRRK-NH2 [LIH383, octapeptide FGGFMRRK (SEQ ID NO: 3; NH2-substituted at C-terminus)]
The IC50 of the first is 2800-fold higher: 11100 nM for the first, 4 nM for the second.
